Our source for the binding result and Kd values is article PMC7492729, “CsrA-Mediated Translational Activation of ymdA Expression in Escherichia coli”.

Details in all cases: protein: recombinant; tags: His6 (C-terminal, as named CsrA-H6); chain copies: 2; label: 5'-32P
The target in data set [1] is T1, CsrA-H6 (Escherichia coli, UniProt P69913 1-61). The data set is described as follows: RNase T1 footprinting; 10 mM MgCl2; BS1 and BS2 protected, BS* and SD GGA not; 10 mM Tris-HCl pH 7.5, 10 mM MgCl2, 100 mM KCl, 40 ng yeast tRNA per 10 ul, 7.5% glycerol, 0.1 mg/ml xylene cyanol, 0.1 nM RNA (2 nM RNA plus 1 ug acetylated BSA for footprint), 37 C 30 min.
Data set [2] concerns the target T1, CsrA-H6. Put plainly: RNase T1 footprinting; 10 mM MgCl2; binds BS1 in absence of BS2; 10 mM Tris-HCl pH 7.5, 10 mM MgCl2, 100 mM KCl, 40 ng yeast tRNA per 10 ul, 7.5% glycerol, 0.1 mg/ml xylene cyanol, 0.1 nM RNA (2 nM RNA plus 1 ug acetylated BSA for footprint), 37 C 30 min.
Data set [3] concerns the target T1, CsrA-H6. The data set is described as follows: EMSA; 10 mM MgCl2, 40 ng yeast tRNA; 10 mM Tris-HCl pH 7.5, 10 mM MgCl2, 100 mM KCl, 40 ng yeast tRNA per 10 ul, 7.5% glycerol, 0.1 mg/ml xylene cyanol, 0.1 nM RNA (2 nM RNA plus 1 ug acetylated BSA for footprint), 37 C 30 min.

T1 sequence (P69913 whole entry): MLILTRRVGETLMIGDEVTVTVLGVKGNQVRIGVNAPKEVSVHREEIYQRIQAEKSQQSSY

B1: ymdA leader RNA (footprint) (structured_RNA)
RNA: GUCUUAAUUUGUUGAAAUAUCGAGCAUAAGAUGAAUCUGGAGAGAAUGGUCUGCUGCGAAUCAGCCAACCUGAAAGUAUGGAUAACACAACCCUCAAGGAUGACUAAUCAUUGAGGAAAUAGAAUAAA
As for B1, in the data set with CsrA-H6 [1], the binding result is on record as “binds”.

B2: ymdA leader RNA BS2 mutant (footprint) (structured_RNA)
RNA: GUCUUAAUUUGUUGAAAUAUCGAGCAUAAGAUGAAUCUGGAGAGAAUGGUCUGCUGCGAAUCAGCCAACCUGAAAGUAUGGAUAACACAACCCUCAAAGAUGACUAAUCAUUGAGGAAAUAGAAUAAA
As for B2, the binding result in the data set with CsrA-H6 [2] was “binds”.

B3: ymdA leader RNA (EMSA) (structured_RNA)
RNA: AAGAUGAAUCUGGAGAGAAUGGUCUGCUGCGAAUCAGCCAACCUGAAAGUAUGGAUAACACAACCCUCAAGGAUGACUAAUCAUUGAGGAAAUAGAAUAAA
Take B3: the dissociation constant (Kd) in the data set with CsrA-H6 [3] was 48 ± 3 nM.
